Results from the Immune Epitope Database (IEDB).
Blank lines part the entries; values can stand above or below the sequence they belong to.

Columns and labels:
[1] = biological target: HLA-A*32:01; assay: IEDB peptide-MHC binding, purified MHC/competitive/radioactivity; filed as Kd, often an IC50 or EC50 that approximates it; ≥ and ≤ were set here for values at or beyond the usual limits of such assays
[2] = biological target: HLA-A*02:01; assay: IEDB peptide-MHC binding, purified MHC/direct/fluorescence; filed as Kd, often an IC50 or EC50 that approximates it; ≥ and ≤ were set here for values at or beyond the usual limits of such assays
[3] = biological target: HLA-A*69:01; assay: as above
[4] = biological target: HLA-B*44:03; assay: IEDB peptide-MHC binding, purified MHC/competitive/radioactivity; filed as Kd, often an IC50 or EC50 that approximates it; ≥ and ≤ were set here for values at or beyond the usual limits of such assays
[5] = biological target: HLA-A*30:02; assay: as above
[6] = biological target: HLA-A*02:01; assay: IEDB peptide-MHC binding, purified MHC/competitive/fluorescence; ≥ and ≤ were set here for values at or beyond the usual limits of such assays
[7] = biological target: HLA-A*01:01; assay: IEDB peptide-MHC binding, purified MHC/competitive/radioactivity; filed as Kd, often an IC50 or EC50 that approximates it; ≥ and ≤ were set here for values at or beyond the usual limits of such assays
[8] = biological target: HLA-B*07:02; assay: IEDB peptide-MHC binding, purified MHC/direct/fluorescence; filed as Kd, often an IC50 or EC50 that approximates it; ≥ and ≤ were set here for values at or beyond the usual limits of such assays; details: source organism: Human herpesvirus 4 strain B95-8
[9] = biological target: HLA-B*40:01; assay: IEDB peptide-MHC binding, purified MHC/competitive/radioactivity; filed as Kd, often an IC50 or EC50 that approximates it; ≥ and ≤ were set here for values at or beyond the usual limits of such assays
[10] = biological target: HLA-B*44:02; assay: as above
[11] = biological target: HLA-B*15:01; assay: IEDB peptide-MHC binding, purified MHC/direct/fluorescence; filed as Kd, often an IC50 or EC50 that approximates it; ≥ and ≤ were set here for values at or beyond the usual limits of such assays; details: source organism: Mycobacterium tuberculosis variant bovis BCG str. Pasteur 1173P2
[12] = biological target: HLA-A*26:01; assay: IEDB peptide-MHC binding, purified MHC/competitive/radioactivity; filed as Kd, often an IC50 or EC50 that approximates it; ≥ and ≤ were set here for values at or beyond the usual limits of such assays
[13] = biological target: HLA-A*03:01; assay: IEDB peptide-MHC binding, purified MHC/direct/fluorescence; filed as Kd, often an IC50 or EC50 that approximates it; ≥ and ≤ were set here for values at or beyond the usual limits of such assays
[14] = biological target: HLA-A*31:01; assay: as above; details: source organism: Escherichia coli
[15] = biological target: HLA-A*01:01; assay: as above
[16] = biological target: HLA-B*40:01; assay: as above
[17] = biological target: HLA-A*02:06; assay: IEDB peptide-MHC binding, purified MHC/competitive/radioactivity; filed as Kd, often an IC50 or EC50 that approximates it; ≥ and ≤ were set here for values at or beyond the usual limits of such assays
[18] = biological target: HLA-B*53:01; assay: as above; details: source organism: Dengue virus 4 Philippines/H241/1956
[19] = biological target: HLA-A*11:01; assay: IEDB peptide-MHC binding, purified MHC/direct/fluorescence; filed as Kd, often an IC50 or EC50 that approximates it; ≥ and ≤ were set here for values at or beyond the usual limits of such assays
[20] = biological target: HLA-A*02:02; assay: IEDB peptide-MHC binding, purified MHC/competitive/radioactivity; filed as Kd, often an IC50 or EC50 that approximates it; ≥ and ≤ were set here for values at or beyond the usual limits of such assays
[21] = biological target: HLA-A*02:03; assay: as above
[22] = biological target: HLA-B*58:01; assay: IEDB peptide-MHC binding, purified MHC/direct/fluorescence; filed as Kd, often an IC50 or EC50 that approximates it; ≥ and ≤ were set here for values at or beyond the usual limits of such assays; details: source organism: SARS-CoV1
[23] = source organism: Vaccinia virus WR
[24] = source organism: Escherichia coli O157:H7
[25] = source organism: Dengue virus 1 Brazil/97-11/1997
[26] = source organism: Dengue virus 3 Martinique/1243/1999
[27] = source organism: Zaire ebolavirus
[28] = source organism: Dengue virus 4 Philippines/H241/1956
[29] = source organism: Dengue virus 2 Jamaica/1409/1983
[30] = source organism: Dengue virus 1 Singapore/S275/1990
[31] = source organism: Sudan ebolavirus
[32] = source organism: Mycobacterium tuberculosis
[33] = source organism: Mycobacterium tuberculosis F11
[34] = source organism: Lassa virus Josiah

Sequence: VTNVIIIVI
Kd [1, 23]: 13.7 nM

Kd [2, 24]: 6000 nM
Kd [3, 24]: ≥ 20000 nM
Sequence: ALEKGIKDV

Sequence: VTLNISSKF
Kd [1, 23]: 10.6 nM

Sequence: SEIQLTDYG
Kd [4, 25]: 441 nM

Sequence: VHQIFGSAY
Kd [5, 26]: 9950 nM

Sequence: LAWIPYFGP
IC50 [6, 27]: 17800 nM

Sequence: VMCSISLTY
Kd [1, 23]: 10.8 nM

Sequence: TTERGGKAY
Kd [7, 28]: 917 nM

Sequence: VPAPAGPIV
Kd ([3]; source organism: Human herpesvirus 4 strain B95-8): 442 nM
Kd [8]: 23.4 nM

Sequence: GESSPNPTI
Kd [9, 29]: 8.75 nM
Kd [10, 29]: 83.5 nM

Sequence: EELGDGLAM
Kd [9, 25]: 221 nM
Kd [4, 25]: 76.6 nM

Sequence: MESEGIFSP
Kd [9, 30]: 2270 nM

Sequence: LEFFLMVLLI
Kd [9, 25]: 10100 nM
Kd [4, 25]: 9090 nM

Sequence: KQRGGYAQF
Kd [11]: 323 nM

Sequence: GVVTTSGTY
Kd [12, 25]: 403 nM
Kd [5, 25]: 169 nM

Sequence: MNEENRFVT
IC50 [6, 27]: 41100 nM

Kd ([13]; source organism: Escherichia coli): ≥ 20000 nM
Kd [14]: 204 nM
Sequence: MPKPSLFVR

Sequence: RTIYNETSI
Kd [1, 23]: 1.03 nM

Sequence: NYADRRWCFD
Kd [1, 29]: ≥ 52300 nM

Sequence: CASSSDWFY
Kd ([15]; source organism: Tobacco leaf curl Zimbabwe virus): 2.1 nM

Sequence: FLQSPPIRE
IC50 [6, 31]: 38000 nM

Sequence: ILGPDCCIE
IC50 [6, 31]: 28100 nM

Sequence: QEHDCLQIV
Kd ([16]; source organism: Mammarenavirus juninense): 1470 nM

Sequence: ELIMKDGRKL
Kd [12, 26]: 12500 nM

Sequence: SVVETLEQM
Kd [12, 25]: 138 nM

Sequence: TLEDDRERL
IC50 ([6]; source organism: Variola virus): 29900 nM

Sequence: MLYGIAQKI
Kd ([1]; source organism: Vaccinia virus Copenhagen): 12.4 nM

Sequence: SQSTIPETI
Kd [1, 29]: ≥ 24100 nM

Sequence: VRLHPLART
IC50 [6, 27]: ≥ 331000 nM

Sequence: FEKQLGQIM
Kd [9, 25]: 558 nM
Kd [10, 25]: 2550 nM

Sequence: TTHTSGPSV
IC50 [6, 31]: 17800 nM

Sequence: MEVDRSEAK
Kd [10, 25]: 7940 nM

Kd ([15]; source organism: Homo sapiens): 12300 nM
Sequence: ITDVQDMDP

Sequence: LETKGVERL
Kd [9, 26]: 21.7 nM

Sequence: MHNQNALVC
IC50 [6, 31]: ≥ 92000 nM

Sequence: TTTGEIGAI
Kd [12, 26]: 5260 nM

Sequence: LENIIVPGL
Kd [16, 32]: 71 nM

Sequence: KKILMNFHQ
IC50 [6, 27]: 63400 nM

Sequence: FLQGAKWYL
Kd [3, 32]: 465 nM

Sequence: SEAVNDSRFW
Kd [10, 28]: 11.4 nM
Kd [4, 28]: 41.4 nM

Kd ([2]; source organism: Homo sapiens): 825 nM
Sequence: GLENGLNYI

Sequence: AVNPGGNIY
Kd [15, 33]: 3000 nM
Kd [13, 33]: ≥ 20000 nM

Sequence: CESCVYNMM
Kd [9, 28]: 201 nM
Kd [10, 28]: 180 nM

Sequence: DFLLRRWGG
IC50 [6, 31]: 56400 nM

Sequence: STEGRRVGV
IC50 [6, 31]: ≥ 210000 nM

Sequence: YIMYNILPI
Kd [1, 23]: 39.4 nM

Sequence: YVILTILTII
Kd [17, 28]: 2.38 nM
Kd [18]: 5330 nM

Sequence: QERGKSLLF
Kd [4, 25]: 117 nM

Sequence: RTMFLFVFR
Kd [19, 32]: 94.6 nM

Sequence: RNPKNENDQY
Kd [5, 29]: 20.7 nM

Sequence: LENDMKFTV
Kd [9, 30]: 124 nM

Sequence: EEYTDYMPSM
Kd [9, 29]: 833 nM
Kd [4, 29]: 116 nM

Sequence: EVPFCSHHF
Kd [12, 28]: 6630 nM

Sequence: AAVLMLVAHY
Kd [5, 25]: 508 nM

Sequence: KTDWLPMTV
Kd ([7]; source organism: Dengue virus 3 Sri Lanka/1266/2000): 56.5 nM

Sequence: EVEDYGFGMF
Kd [12, 28]: 72.1 nM

Sequence: TLARGFPFV
Kd ([3]; source organism: West Nile virus): ≤ 1 nM

Sequence: CLEAKTHFST
Kd [20, 23]: 12400 nM
Kd [21, 23]: 11100 nM
Kd [17, 23]: ≥ 69800 nM

Sequence: SEKNETWKL
Kd [9, 25]: 113 nM
Kd [10, 25]: 153 nM

Sequence: PLTGNNTITT
Kd [20, 23]: 7670 nM
Kd [21, 23]: ≥ 29500 nM
Kd [17, 23]: ≥ 69800 nM

Sequence: KEENLVKSMV
Kd [4, 30]: ≥ 22100 nM

Sequence: IVAAVIIMA
Kd [20, 23]: 10400 nM
Kd [21, 23]: 2660 nM
Kd [17, 23]: 3570 nM

Sequence: SALNHTKKW
Kd ([19]; source organism: SARS-CoV1): 17100 nM
Kd [22]: 350 nM

Sequence: FSTSFYLISI
Kd [20, 34]: 2.13 nM
Kd [21, 34]: 52.6 nM
Kd [17, 34]: 9.23 nM
